Paper PMC3800186 (Biochemistry, 2013)
Numbered stars: 1 amine (or outer) side, 2 acyl side, 3 side chain; on linkers, the order of the positions; unused ones are H or OH. Square brackets hold non-standard residues; d marks the D form. Ends that are not written are not given here. X3 = Pro(4S-(4-(4-aminophenyl)-1,2,3-triazol-1-yl)), O=C([C@@H]1C[C@H](n2cc(-c3ccc(N[*:3])cc3)nn2)CN1[*:1])[*:2]; Cit = NC(=O)NCCC[C@H](N)C(=O)O

Molecular target: Full-length HIV-1 YU2 gp120 (HIV-1 YU2, UniProt P35961 32-498)
Assay: ELISA

Binder: [Cit]NNI[X3]WS-NH2 [UM25 peptide triazole]
- IC50: 18 µM
